The values that follow come from US20210380978.

For the data set, the system named is HNRNPH1 isoform A (Homo sapiens). Nature of the data set: MST. Particulars: 50 mM Tris pH 8.0, 300 mM KCl, 0.02% NP-40, 10% glycerol, 0.5 mg/ml heparin, 22 C; 20 nM RNA.

Regarding INCA1 major eCLIP peak 50-nt RNA oligo, the Kd turned out to be 0.762 µM.
